Assay results as given in publication PMC6450878.

Key:
[1] = target: eGFP-talin1 (human talin1) (UniProt Q9Y490); assay: OPTIC assay (microscopy of GFP-talin1 recruitment to clustered CEACAM3-integrin fusion proteins in 293T cells); conditions: 293 T cells co-transfected with CEACAM3-integrin fusion constructs and GFP-talin1, infected for 1 h with Pacific Blue-labeled Ngo, read off a plot
[2] = target: CEACAM3-integrin β1 fusion construct (CEA3-ITGB1) (human) (UniProt P05556); assay: OPTIC (Opa protein triggered integrin clustering; recruitment of a fluorescent protein to the clustered chimeric receptor, confocal microscopy); 293T cells co-transfected with CEA3-ΔCT or a CEA3-ITGB chimera and the protein of interest fused to eGFP or mCherry, seeded on poly-L-lysine; infected 1 h with Pacific Blue-stained Opa52-expressing N. gonorrhoeae at MOI 20; fixed, stained for CEACAM3; R = maximum fluorescence at the clustered chimera / mean fluorescence of the cell; R > 2 defined as positive recruitment; n = 60 cells
[3] = target: CEACAM3-integrin β3 fusion construct (CEA3-ITGB3) (human) (UniProt P05106); assay: as above
[4] = target: CEA3-ITGB2 C.ow (CEACAM3 fused to the cytoplasmic domain of Capsaspora owczarzaki integrin β homologue ITGB2 C.ow) (human | Capsaspora owczarzaki); assay: as above
[5] = target: CEA3-ITGB1 C.ow (CEACAM3 fused to the cytoplasmic domain of Capsaspora owczarzaki integrin β homologue ITGB1 C.ow) (human | Capsaspora owczarzaki); assay: as above
[6] = target: CEACAM3-integrin β5 fusion construct (CEA3-ITGB5) (human) (UniProt P18084); assay: as above
[7] = target: CEACAM3-integrin β2 fusion construct (CEA3-ITGB2) (human) (UniProt P05107); assay: as above
CEA3-ITGB1 Y783A (human) = CEA3-ITGB1 Y783A (human) (UniProt P05556); assay: as above

Chain of UniProt Q9Y490 (Q9Y490 whole entry, looked up, the tested form may be a part): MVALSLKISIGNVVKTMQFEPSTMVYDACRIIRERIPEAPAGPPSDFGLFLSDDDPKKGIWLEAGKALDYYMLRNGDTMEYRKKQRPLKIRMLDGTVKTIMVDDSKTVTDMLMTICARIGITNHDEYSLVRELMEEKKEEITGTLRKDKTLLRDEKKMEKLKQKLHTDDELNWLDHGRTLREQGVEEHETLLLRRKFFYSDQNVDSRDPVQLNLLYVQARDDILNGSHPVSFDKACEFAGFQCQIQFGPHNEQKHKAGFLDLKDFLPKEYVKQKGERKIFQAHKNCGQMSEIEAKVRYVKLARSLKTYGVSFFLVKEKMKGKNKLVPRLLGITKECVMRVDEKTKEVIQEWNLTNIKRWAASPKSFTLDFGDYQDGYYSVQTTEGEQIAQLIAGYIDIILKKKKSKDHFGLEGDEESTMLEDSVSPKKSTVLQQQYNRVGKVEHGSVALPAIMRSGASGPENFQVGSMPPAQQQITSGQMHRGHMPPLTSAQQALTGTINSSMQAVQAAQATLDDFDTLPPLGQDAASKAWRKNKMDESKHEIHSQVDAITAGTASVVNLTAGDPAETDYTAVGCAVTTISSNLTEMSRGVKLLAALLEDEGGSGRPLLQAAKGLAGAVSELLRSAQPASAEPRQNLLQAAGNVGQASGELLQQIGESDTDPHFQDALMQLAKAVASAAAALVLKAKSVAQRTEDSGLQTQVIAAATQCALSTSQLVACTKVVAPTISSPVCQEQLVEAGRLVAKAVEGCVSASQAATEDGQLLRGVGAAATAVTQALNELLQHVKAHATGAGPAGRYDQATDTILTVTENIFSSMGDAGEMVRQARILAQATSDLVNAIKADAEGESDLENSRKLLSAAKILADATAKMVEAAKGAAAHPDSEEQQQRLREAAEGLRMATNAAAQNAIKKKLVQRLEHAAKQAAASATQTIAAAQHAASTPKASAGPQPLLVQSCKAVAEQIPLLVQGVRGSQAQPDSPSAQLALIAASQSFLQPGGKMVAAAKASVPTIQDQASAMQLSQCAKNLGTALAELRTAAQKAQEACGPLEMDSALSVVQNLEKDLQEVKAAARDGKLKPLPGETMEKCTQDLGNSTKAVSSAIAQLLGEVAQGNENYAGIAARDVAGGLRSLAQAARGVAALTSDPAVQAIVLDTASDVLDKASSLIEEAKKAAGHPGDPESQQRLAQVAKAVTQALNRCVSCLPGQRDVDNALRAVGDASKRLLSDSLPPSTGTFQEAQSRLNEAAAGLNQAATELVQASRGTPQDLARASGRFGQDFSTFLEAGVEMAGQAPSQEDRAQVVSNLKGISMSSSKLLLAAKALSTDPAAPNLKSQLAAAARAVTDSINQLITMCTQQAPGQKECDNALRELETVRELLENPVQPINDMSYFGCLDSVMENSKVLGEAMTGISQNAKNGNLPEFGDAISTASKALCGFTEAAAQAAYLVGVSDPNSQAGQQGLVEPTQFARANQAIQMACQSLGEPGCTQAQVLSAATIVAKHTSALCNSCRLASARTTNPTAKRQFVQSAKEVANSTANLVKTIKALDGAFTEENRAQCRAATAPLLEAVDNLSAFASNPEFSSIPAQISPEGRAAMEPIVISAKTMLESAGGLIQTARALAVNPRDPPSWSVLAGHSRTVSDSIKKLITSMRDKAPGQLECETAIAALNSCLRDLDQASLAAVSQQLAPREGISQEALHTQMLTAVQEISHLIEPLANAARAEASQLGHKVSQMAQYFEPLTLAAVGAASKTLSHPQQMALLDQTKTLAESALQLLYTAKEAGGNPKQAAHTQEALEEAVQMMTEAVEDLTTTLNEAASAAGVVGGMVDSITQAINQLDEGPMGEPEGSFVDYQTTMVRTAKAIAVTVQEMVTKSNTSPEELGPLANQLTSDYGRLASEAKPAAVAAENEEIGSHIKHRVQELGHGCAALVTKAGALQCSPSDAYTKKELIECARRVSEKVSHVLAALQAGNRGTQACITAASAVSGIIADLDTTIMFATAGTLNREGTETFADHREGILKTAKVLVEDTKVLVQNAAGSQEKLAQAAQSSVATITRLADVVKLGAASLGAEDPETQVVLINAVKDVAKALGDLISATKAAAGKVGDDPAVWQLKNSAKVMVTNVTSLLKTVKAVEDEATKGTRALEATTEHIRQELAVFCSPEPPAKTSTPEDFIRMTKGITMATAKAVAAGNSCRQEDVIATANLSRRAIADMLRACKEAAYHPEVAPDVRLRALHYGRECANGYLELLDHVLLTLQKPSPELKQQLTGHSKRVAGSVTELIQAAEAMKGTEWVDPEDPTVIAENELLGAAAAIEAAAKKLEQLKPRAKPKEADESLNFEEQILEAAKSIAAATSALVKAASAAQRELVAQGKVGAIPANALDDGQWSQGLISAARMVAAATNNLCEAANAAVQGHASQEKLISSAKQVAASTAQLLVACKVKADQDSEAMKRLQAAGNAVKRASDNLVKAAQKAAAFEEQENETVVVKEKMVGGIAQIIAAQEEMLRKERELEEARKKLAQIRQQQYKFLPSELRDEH

## CEA3-ITGB2 C.ow (CEACAM3 fused to the cytoplasmic domain of Capsaspora owczarzaki integrin β homologue ITGB2 C.ow) F1038A
[1]; n = 60 cells from three …, parent: est. 2.6
  other: talin recruitment ratio R: 2.2
[1]; parent: est. 64
  other: percentage of cells with talin recruitment R ≥ 2: 59%

## eGFP-tagged human kindlin-2 (from UniProt Q96AC1 1-680) (natural protein)
[2]
  recruitment ratio R (mean): 3.9
[3]
  recruitment ratio R (mean): 2.4

## eGFP-tagged paxillin (from UniProt P49023 1-591) (natural protein)
[2]
  recruitment ratio R (mean): 2.92
[3]
  recruitment ratio R (mean): 2.57

## eGFP-talin1 (human talin1) (from UniProt Q9Y490 1-2541) (natural protein)
[2]
  percent of cells with R >= 2: 85%
  recruitment ratio R (mean): 3.41
[4]
  recruitment ratio R: > 2
[5]
  recruitment ratio R: > 2
[6]
  percent of cells with R >= 2: 62%
  recruitment ratio R (mean): 2.1
[7]
  percent of cells with R >= 2: 85%
[3]
  percent of cells with R >= 2: 85%
  recruitment ratio R (mean): 3.78

## mCherry
[2]
  recruitment ratio R (mean): 1.5

## mCherry-talin1 (human talin1) (from UniProt Q9Y490 1-2541) (natural protein)
[2]
  percent of cells with R >= 2: 85%
  recruitment ratio R (mean): 2.84
CEA3-ITGB1 Y783A (human)
  percent of cells with R >= 2: 17%
  recruitment ratio R (mean): 1.8
